# From paper PMC9537309
# B1: FLAG-tagged DND1 wild-type (Dead End, full-length human protein 1-353) [human] / RNA helicase MOV10 [human (endogenous in HEK293T)] (parent)
# chain 1: MQSKRDCELWCERVNPENKAALEAWVRETGIRLVQVNGQRKYGGPPPGWVGSPPPAGSEVFIGRLPQDVYEHQLIPLFQRVGRLYEFRLMMTFSGLNRGFAYARYSSRRGAQAAIATLHNHPLRPSCPLLVCRSTEKCELSVDGLPPNLTRSALLLALQPLGPGLQEARLLPSPGPAPGQIALLKFSSHRAAAMAKKALVEGQSHLCGEQVAVEWLKPDLKQRLRQQLVGPFLRSPQPEGSQLALARDKLGFQGARATLQLLCQRMKLGSPVFLTKCLGIGPAGWHRFWYQVVIPGHPVPFSGLIWVVLTLDGRDGHEVAKDAVSVRLLQALSESGANLLWSAGAEAGTMVKQ
# chain 2: MPSKFSCRQLREAGQCFESFLVVRGLDMETDRERLRTIYNRDFKISFGTPAPGFSSMLYGMKIANLAYVTKTRVRFFRLDRWADVRFPEKRRMKLGSDISKHHKSLLAKIFYDRAEYLHGKHGVDVEVQGPHEARDGQLLIRLDLNRKEVLTLRLRNGGTQSVTLTHLFPLCRTPQFAFYNEDQELPCPLGPGECYELHVHCKTSFVGYFPATVLWELLGPGESGSEGAGTFYIARFLAAVAHSPLAAQLKPMTPFKRTRITGNPVVTNRIEEGERPDRAKGYDLELSMALGTYYPPPRLRQLLPMLLQGTSIFTAPKEIAEIKAQLETALKWRNYEVKLRLLLHLEELQMEHDIRHYDLESVPMTWDPVDQNPRLLTLEVPGVTESRPSVLRGDHLFALLSSETHQEDPITYKGFVHKVELDRVKLSFSMSLLSRFVDGLTFKVNFTFNRQPLRVQHRALELTGRWLLWPMLFPVAPRDVPLLPSDVKLKLYDRSLESNPEQLQAMRHIVTGTTRPAPYIIFGPPGTGKTVTLVEAIKQVVKHLPKAHILACAPSNSGADLLCQRLRVHLPSSIYRLLAPSRDIRMVPEDIKPCCNWDAKKGEYVFPAKKKLQEYRVLITTLITAGRLVSAQFPIDHFTHIFIDEAGHCMEPESLVAIAGLMEVKETGDPGGQLVLAGDPRQLGPVLRSPLTQKHGLGYSLLERLLTYNSLYKKGPDGYDPQFITKLLRNYRSHPTILDIPNQLYYEGELQACADVVDRERFCRWAGLPRQGFPIIFHGVMGKDEREGNSPSFFNPEEAATVTSYLKLLLAPSSKKGKARLSPRSVGVISPYRKQVEKIRYCITKLDRELRGLDDIKDLKVGSVEEFQGQERSVILISTVRSSQSFVQLDLDFNLGFLKNPKRFNVAVTRAKALLIIVGNPLLLGHDPDWKVFLEFCKENGGYTGCPFPAKLDLQQGQNLLQGLSKLSPSTSGPHSHDYLPQEREGEGGLSLQVEPEWRNEL
# B2: FLAG-tagged DND1 wild-type (Dead End, full-length human protein 1-353) [human] / MEX3A [human (endogenous in HEK293T)] (parent)
# chain 1: B1 chain 1
# chain 2: MPSLVVSGIMERNGGFGELGCFGGSAKDRGLLEDERALQLALDQLCLLGLGEPPAPTAGEDGGGGGGGAPAQPAAPPQPAPPPPPAAPPAAPTAAPAAQTPQPPTAPKGASDAKLCALYKEAELRLKGSSNTTECVPVPTSEHVAEIVGRQGCKIKALRAKTNTYIKTPVRGEEPVFMVTGRREDVATARREIISAAEHFSMIRASRNKSGAAFGVAPALPGQVTIRVRVPYRVVGLVVGPKGATIKRIQQQTNTYIITPSRDRDPVFEITGAPGNVERAREEIETHIAVRTGKILEYNNENDFLAGSPDAAIDSRYSDAWRVHQPGCKPLSTFRQNSLGCIGECGVDSGFEAPRLGEQGGDFGYGGYLFPGYGVGKQDVYYGVAETSPPLWAGQENATPTSVLFSSASSSSSSSAKARAGPPGAHRSPATSAGPELAGLPRRPPGEPLQGFSKLGGGGLRSPGGGRDCMVCFESEVTAALVPCGHNLFCMECAVRICERTDPECPVCHITATQAIRIFS
# B3: FLAG-tagged DND1 wild-type (Dead End, full-length human protein 1-353) [human] / DHX30 [human (endogenous in HEK293T)] (parent)
# chain 1: B1 chain 1
# chain 2: MFSLDSFRKDRAQHRQRQCKLPPPRLPPMCVNPTPGGTISRASRDLLKEFPQPKNLLNSVIGRALGISHAKDKLVYVHTNGPKKKKVTLHIKWPKSVEVEGYGSKKIDAERQAAAAACQLFKGWGLLGPRNELFDAAKYRVLADRFGSPADSWWRPEPTMPPTSWRQLNPESIRPGGPGGLSRSLGREEEEDEEEELEEGTIDVTDFLSMTQQDSHAPLRDSRGSSFEMTDDDSAIRALTQFPLPKNLLAKVIQIATSSSTAKNLMQFHTVGTKTKLSTLTLLWPCPMTFVAKGRRKAEAENKAAALACKKLKSLGLVDRNNEPLTHAMYNLASLRELGETQRRPCTIQVPEPILRKIETFLNHYPVESSWIAPELRLQSDDILPLGKDSGPLSDPITGKPYVPLLEAEEVRLSQSLLELWRRRGPVWQEAPQLPVDPHRDTILNAIEQHPVVVISGDTGCGKTTRIPQLLLERYVTEGRGARCNVIITQPRRISAVSVAQRVSHELGPSLRRNVGFQVRLESKPPSRGGALLFCTVGILLRKLQSNPSLEGVSHVIVDEVHERDVNTDFLLILLKGLQRLNPALRLVLMSATGDNERFSRYFGGCPVIKVPGFMYPVKEHYLEDILAKLGKHQYLHRHRHHESEDECALDLDLVTDLVLHIDARGEPGGILCFLPGWQEIKGVQQRLQEALGMHESKYLILPVHSNIPMMDQKAIFQQPPVGVRKIVLATNIAETSITINDIVHVVDSGLHKEERYDLKTKVSCLETVWVSRANVIQRRGRAGRCQSGFAYHLFPRSRLEKMVPFQVPEILRTPLENLVLQAKIHMPEKTAVEFLSKAVDSPNIKAVDEAVILLQEIGVLDQREYLTTLGQRLAHISTDPRLAKAIVLAAIFRCLHPLLVVVSCLTRDPFSSSLQNRAEVDKVKALLSHDSGSDHLAFVRAVAGWEEVLRWQDRSSRENYLEENLLYAPSLRFIHGLIKQFSENIYEAFLVGKPSDCTLASAQCNEYSEEEELVKGVLMAGLYPNLIQVRQGKVTRQGKFKPNSVTYRTKSGNILLHKSTINREATRLRSRWLTYFMAVKSNGSVFVRDSSQVHPLAVLLLTDGDVHIRDDGRRATISLSDSDLLRLEGDSRTVRLLKELRRALGRMVERSLRSELAALPPSVQEEHGQLLALLAELLRGPCGSFDVRKTADD
# B4: FLAG-tagged DND1 wild-type (Dead End, full-length human protein 1-353) [human] / HNRNPL [human (endogenous in HEK293T)] (parent)
# chain 1: B1 chain 1
# chain 2: MSRRLLPRAEKRRRRLEQRQQPDEQRRRSGAMVKMAAAGGGGGGGRYYGGGSEGGRAPKRLKTDNAGDQHGGGGGGGGGAGAAGGGGGGENYDDPHKTPASPVVHIRGLIDGVVEADLVEALQEFGPISYVVVMPKKRQALVEFEDVLGACNAVNYAADNQIYIAGHPAFVNYSTSQKISRPGDSDDSRSVNSVLLFTILNPIYSITTDVLYTICNPCGPVQRIVIFRKNGVQAMVEFDSVQSAQRAKASLNGADIYSGCCTLKIEYAKPTRLNVFKNDQDTWDYTNPNLSGQGDPGSNPNKRQRQPPLLGDHPAEYGGPHGGYHSHYHDEGYGPPPPHYEGRRMGPPVGGHRRGPSRYGPQYGHPPPPPPPPEYGPHADSPVLMVYGLDQSKMNCDRVFNVFCLYGNVEKVKFMKSKPGAAMVEMADGYAVDRAITHLNNNFMFGQKLNVCVSKQPAIMPGQSYGLEDGSCSYKDFSESRNNRFSTPEQAAKNRIQHPSNVLHFFNAPLEVTEENFFEICDELGVKRPSSVKVFSGKSERSSSGLLEWESKSDALETLGFLNHYQMKNPNGPYPYTLKLCFSTAQHAS
# Variants of: B1
# Experiment: FLAG immunoprecipitation and LC/ESI-MS/MS
# Details: with RNA helicase MOV10 [human (endogenous in HEK293T)]; HEK293T cells, three biological replicates; read off a plot
row,Variant,screen value
1,chain 1 MQSKRDCELWCERVNPENKAALEAWVRETGIRLVQVNGQRKYGGPPPGWVGSPPPAGSEVFIGRLPQDVYEHQLIPLFQRVGRLYEFRLMMTFSGLNAGFAYARYSSRRGAQAAIATLHNHPLRPSCPLLVCRSTEKCELSVDGLPPNLTRSALLLALQPLGPGLQEARLLPSPGPAPGQIALLKFSSHRAAAMAKKALVEGQSHLCGEQVAVEWLKPDLKQRLRQQLVGPFLRSPQPEGSQLALARDKLGFQGARATLQLLCQRMKLGSPVFLTKCLGIGPAGWHRFWYQVVIPGHPVPFSGLIWVVLTLDGRDGHEVAKDAVSVRLLQALSESGANLLWSAGAEAGTMVKQ [chain 1 R98A],-3.2

# Variants of: B2
# Experiment: FLAG immunoprecipitation and LC/ESI-MS/MS
# Details: with MEX3A [human (endogenous in HEK293T)]; HEK293T cells, three biological replicates; read off a plot
row,Variant,screen value
1,chain 1 MQSKRDCELWCERVNPENKAALEAWVRETGIRLVQVNGQRKYGGPPPGWVGSPPPAGSEVFIGRLPQDVYEHQLIPLFQRVGRLYEFRLMMTFSGLNAGFAYARYSSRRGAQAAIATLHNHPLRPSCPLLVCRSTEKCELSVDGLPPNLTRSALLLALQPLGPGLQEARLLPSPGPAPGQIALLKFSSHRAAAMAKKALVEGQSHLCGEQVAVEWLKPDLKQRLRQQLVGPFLRSPQPEGSQLALARDKLGFQGARATLQLLCQRMKLGSPVFLTKCLGIGPAGWHRFWYQVVIPGHPVPFSGLIWVVLTLDGRDGHEVAKDAVSVRLLQALSESGANLLWSAGAEAGTMVKQ [chain 1 R98A],-3.2

# Variants of: B3
# Experiment: FLAG immunoprecipitation and LC/ESI-MS/MS
# Details: with DHX30 [human (endogenous in HEK293T)]; HEK293T cells, three biological replicates; read off a plot
row,Variant,screen value
1,chain 1 MQSKRDCELWCERVNPENKAALEAWVRETGIRLVQVNGQRKYGGPPPGWVGSPPPAGSEVFIGRLPQDVYEHQLIPLFQRVGRLYEFRLMMTFSGLNAGFAYARYSSRRGAQAAIATLHNHPLRPSCPLLVCRSTEKCELSVDGLPPNLTRSALLLALQPLGPGLQEARLLPSPGPAPGQIALLKFSSHRAAAMAKKALVEGQSHLCGEQVAVEWLKPDLKQRLRQQLVGPFLRSPQPEGSQLALARDKLGFQGARATLQLLCQRMKLGSPVFLTKCLGIGPAGWHRFWYQVVIPGHPVPFSGLIWVVLTLDGRDGHEVAKDAVSVRLLQALSESGANLLWSAGAEAGTMVKQ [chain 1 R98A],-2.3

# Variants of: B4
# Experiment: FLAG immunoprecipitation and LC/ESI-MS/MS
# Details: with HNRNPL [human (endogenous in HEK293T)]; HEK293T cells, three biological replicates; read off a plot
row,Variant,screen value
1,chain 1 MQSKRDCELWCERVNPENKAALEAWVRETGIRLVQVNGQRKYGGPPPGWVGSPPPAGSEVFIGRLPQDVYEHQLIPLFQRVGRLYEFRLMMTFSGLNAGFAYARYSSRRGAQAAIATLHNHPLRPSCPLLVCRSTEKCELSVDGLPPNLTRSALLLALQPLGPGLQEARLLPSPGPAPGQIALLKFSSHRAAAMAKKALVEGQSHLCGEQVAVEWLKPDLKQRLRQQLVGPFLRSPQPEGSQLALARDKLGFQGARATLQLLCQRMKLGSPVFLTKCLGIGPAGWHRFWYQVVIPGHPVPFSGLIWVVLTLDGRDGHEVAKDAVSVRLLQALSESGANLLWSAGAEAGTMVKQ [chain 1 R98A],-1.7
